Measurements reported in patent US20210024620A1.

Assays:
[1] = target: rat FcRn (rat) (UniProt P13599); experiment: Biacore SPR, pH 7.4
[2] = target: biotinylated human FcRn (human) (UniProt P55899); experiment: Biacore SPR, pH 6.0
[3] = target: biotinylated human FcRn (human) (UniProt P55899); experiment: Biacore SPR, pH 6.0; remark: listed apart in the source
[4] = target: rat FcRn (rat) (UniProt P13599); experiment: Biacore SPR, pH 6.0
[5] = target: biotinylated human FcRn (human) (UniProt P55899); experiment: Biacore, pH 6.0, apparent KD
[6] = target: rat FcRn (rat) (UniProt P13599); experiment: Biacore, pH 6.0, apparent KD
[7] = target: rat FcRn (rat) (UniProt P13599); experiment: Biacore SPR, pH 7.4, 1000 nM antibody
[8] = target: FcRn immobilised on the FcRn affinity column (biotinylated cynoFcRn in one experiment, biotinylated hFcRn in another); experiment: FcRn affinity chromatography, linear pH gradient; species of the immobilised FcRn not given
[9] = target: biotinylated human FcRn (p51 subunit residues 24-297 with C-terminal Avi-tag; beta2-microglobulin residues 21-119) (human) (UniProt P55899); experiment: Biacore SPR, pH 6.0
[10] = target: biotinylated human FcRn (p51 subunit residues 24-297 with C-terminal Avi-tag; beta2-microglobulin residues 21-119) (human) (UniProt P55899); experiment: Biacore SPR, pH 7.4, steady state
[11] = target: biotinylated human FcRn (human) (UniProt P55899); experiment: Biacore, biotin-captured hFcRn, pH 7.4
[12] = target: biotinylated human FcRn (human) (UniProt P55899); experiment: Biacore, biotin-captured hFcRn, pH 8.0
[13] = target: biotinylated cynomolgus FcRn (cynomolgus) (UniProt Q8SPV9); experiment: Biacore, biotin-captured cFcRn, pH 6.0
[14] = target: biotinylated cynomolgus FcRn (cynomolgus) (UniProt Q8SPV9); experiment: Biacore, biotin-captured cFcRn, pH 7.4
[15] = target: biotinylated cynomolgus FcRn (cynomolgus) (UniProt Q8SPV9); experiment: Biacore, biotin-captured cFcRn, pH 8.0
[16] = target: biotinylated human FcRn (human) (UniProt P55899); experiment: Biacore, biotin-captured hFcRn, pH 7.4, 1000 nM antibody
[17] = target: biotinylated human FcRn (human) (UniProt P55899); experiment: Biacore, biotin-captured hFcRn, pH 8.0, 1000 nM antibody
[18] = target: biotinylated human FcRn (human) (UniProt P55899); experiment: Biacore, biotin-captured hFcRn, pH 9.0, 1000 nM antibody
[19] = target: biotinylated cynomolgus FcRn (cynomolgus) (UniProt Q8SPV9); experiment: Biacore, biotin-captured cFcRn, pH 7.4, 1000 nM antibody
[20] = target: biotinylated cynomolgus FcRn (cynomolgus) (UniProt Q8SPV9); experiment: Biacore, biotin-captured cFcRn, pH 8.0, 1000 nM antibody
[21] = target: biotinylated cynomolgus FcRn (cynomolgus) (UniProt Q8SPV9); experiment: Biacore, biotin-captured cFcRn, pH 9.0, 1000 nM antibody
[22] = target: biotinylated human FcRn (human) (UniProt P55899); experiment: Biacore, pH 6.0
[23] = target: rat FcRn (rat) (UniProt P13599); experiment: Biacore, pH 6.0
[24] = target: biotinylated human FcRn (human) (UniProt P55899); experiment: Biacore SPR, pH 7.4
[25] = target: biotinylated human FcRn (human) (UniProt P55899); experiment: Biacore, pH 7.4, steady state response
[26] = target: rat FcRn (rat) (UniProt P13599); experiment: Biacore, pH 7.4, steady state response
[27] = target: biotinylated human FcRn (p51 subunit residues 24-297 with C-terminal Avi-tag; beta2-microglobulin residues 21-119) (human) (UniProt P55899); experiment: Biacore; inverse ratio (RU at pH 7.4 over affinity at pH 6.0)
[28] = target: Human CD16a (FcγRIIIa V158) with C-terminal HPC4 tag (human) (UniProt P08637); experiment: Biacore, FcγRIIIa V158 captured, steady-state fit, apparent KD
[29] = target: biotinylated human FcRn (p51 subunit residues 24-297 with C-terminal Avi-tag; beta2-microglobulin residues 21-119) (human) (UniProt P55899); experiment: Biacore; affinity at pH 6.0 (M^-1) over steady state RU at pH 7.4
[30] = target: biotinylated human FcRn (human) (UniProt P55899); experiment: Biacore, biotin-captured hFcRn, pH 6.0
[31] = target: biotinylated human FcRn (human) (UniProt P55899); experiment: Biacore SPR, pH 7.4, 1000 nM antibody

Chain of rat FcRn (rat) (P13599 23-298 limits assumed, chain 1 of 2): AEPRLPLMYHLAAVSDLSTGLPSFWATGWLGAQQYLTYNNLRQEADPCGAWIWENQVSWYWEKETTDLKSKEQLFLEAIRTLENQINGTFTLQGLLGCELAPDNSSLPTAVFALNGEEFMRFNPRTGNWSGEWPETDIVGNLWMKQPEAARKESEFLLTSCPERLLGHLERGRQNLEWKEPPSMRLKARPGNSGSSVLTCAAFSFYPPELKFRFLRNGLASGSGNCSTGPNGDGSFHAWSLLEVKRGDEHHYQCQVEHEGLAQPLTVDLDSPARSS
Chain of rat FcRn (rat) (P07151 21-119 limits assumed, chain 2 of 2, further chain): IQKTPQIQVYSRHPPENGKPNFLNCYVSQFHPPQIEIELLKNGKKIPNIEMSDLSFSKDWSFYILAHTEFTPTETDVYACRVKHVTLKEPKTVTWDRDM
Chain of biotinylated human FcRn (p51 subunit residues 24-297 with C-terminal Avi-tag; beta2-microglobulin residues 21-119) (human) (P55899 24-297 limits assumed, chain 1 of 2): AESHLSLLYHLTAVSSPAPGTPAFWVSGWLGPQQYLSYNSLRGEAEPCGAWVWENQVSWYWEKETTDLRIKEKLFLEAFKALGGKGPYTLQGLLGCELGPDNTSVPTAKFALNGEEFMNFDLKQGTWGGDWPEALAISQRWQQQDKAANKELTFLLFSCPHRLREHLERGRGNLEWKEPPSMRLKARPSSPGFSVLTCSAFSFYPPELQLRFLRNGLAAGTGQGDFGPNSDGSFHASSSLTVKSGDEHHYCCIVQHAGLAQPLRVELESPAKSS
Chain of biotinylated human FcRn (p51 subunit residues 24-297 with C-terminal Avi-tag; beta2-microglobulin residues 21-119) (human) (P61769 21-119 limits assumed, chain 2 of 2, further chain): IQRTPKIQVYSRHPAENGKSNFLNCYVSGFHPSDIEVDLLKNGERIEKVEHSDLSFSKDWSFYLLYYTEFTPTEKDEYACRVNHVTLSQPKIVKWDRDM
Chain of biotinylated human FcRn (human) (P55899 24-297 limits assumed, chain 1 of 2): as the sequence (P55899 24-297 limits assumed, chain 1 of 2) above
Chain of biotinylated human FcRn (human) (P61769 21-119 limits assumed, chain 2 of 2, further chain): as the sequence (P61769 21-119 limits assumed, chain 2 of 2, further chain) above
Chain of Human CD16a (FcγRIIIa V158) with C-terminal HPC4 tag (human) (P08637 17-208 F176V): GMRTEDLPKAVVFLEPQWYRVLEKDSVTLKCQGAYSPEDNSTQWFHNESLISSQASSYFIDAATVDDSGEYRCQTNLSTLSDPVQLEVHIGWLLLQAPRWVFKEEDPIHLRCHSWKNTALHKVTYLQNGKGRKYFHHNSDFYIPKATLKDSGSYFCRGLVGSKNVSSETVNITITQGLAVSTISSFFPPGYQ

Substance | Steady State RU [1] [RU] | Kd [3] [µM] | Kd [4] [µM] | Kd [5] [µM] | Kd [6] [µM] | FcRn affinity column elution pH [8] [pH] | Ka [9] [M⁻¹] | Steady State Binding, pH 7.4 (RU) [10] [RU] | Kd [11] [µM] | Kd [12] [µM] | Kd [13] [µM] | Kd [14] [µM] | Kd [15] [µM] | Steady State RU [16] [RU] | Steady State RU [17] [RU] | Steady State RU [18] [RU] | Steady State RU [19] [RU] | Steady State RU [20] [RU] | Steady State RU [21] [RU] | Steady State RU [24] [RU] | other results
mAb1 T256D (antibody) | 23.2 | 6.7 | 0.086 | 6.7 | 0.086 | 7.82 |  |  |  |  |  |  |  |  |  |  |  |  |  |  | Kd [2]: > 3 µM; Steady State RU [7]: 30.4 RU
mAb1 YTWY (M252Y/T307W/N434Y) (antibody) |  |  |  |  |  |  | 1.06e+08 | 75.1 | 0.065 | 2.5 | 0.0077 | 0.07 | 1.1 | 133 | 232 | 4 | 159 | 292 | 6.5 |  | 
mAb1 YETN (M252Y/T256E) (antibody) | 55.1 | 0.128 | 0.00843 | 0.128 | 0.0084 | 7.83 | 7.81e+06 | 9.8 |  |  |  |  |  |  |  |  |  |  |  | 9.8 | koff [22]: 0.076 s⁻¹; kon [22]: 590000 M⁻¹ s⁻¹; koff [23]: 0.0027 s⁻¹; kon [23]: 32000 M⁻¹ s⁻¹; koff [3]: 0.0757 s⁻¹; kon [3]: 592000 M⁻¹ s⁻¹; koff [4]: 0.00273 s⁻¹; kon [4]: 324000 M⁻¹ s⁻¹; Steady State RU [25]: 9.8 RU; Steady State RU [26]: 55.1 RU; Ratio (pH 6.0/pH 7.4) [27]: 1.25e-06; Kd [28]: 0.878 µM; Ratio (pH 6.0/pH 7.4) [29]: 797000
mAb1 YEWY (M252Y/T256E/T307W/N434Y) (antibody) |  |  |  |  |  |  |  |  | 0.061 | 1.9 | 0.0061 | 0.063 | 1.3 | 141 | 245 |  | 162 | 303 | 5.4 |  | 
mAb1 YTTY (M252Y/N434Y) (antibody) | 67.9 | 0.00832 | 0.00026 |  |  |  | 1.2e+08 | 54.1 | 0.065 | 3.3 | 0.02 | 0.083 | 1.3 | 125 | 188 |  | 147 | 238 | 1 | 54.1 | 
mAb1 YDTY (M252Y/T256D/N434Y) (antibody) |  |  |  |  |  |  | 9.01e+07 | 65.4 | 0.076 | 8.7 | 0.013 | 0.064 | 2.5 | 120 | 141 | 0.6 | 134 | 183 | 1.9 |  | Kd [30]: 0.015 µM
mAb1 wildtype (WT) human IgG1 antibody | 13 |  | 0.207 |  |  | 7.37 |  |  |  |  | 0.66 |  |  | 0.2 | 0.2 |  | 1.5 | 1.4 |  | 4.2 | Kd [2]: 2.38 µM; Steady State RU [31]: 4.3 RU; Steady State RU [7]: 12.2 RU; Kd [30]: 1.3 µM
mAb1 YDQF (M252Y/T256D/T307Q/N434F) (antibody) |  |  |  |  |  |  | 1.11e+08 | 68.6 | 0.082 | 2.7 | 0.0043 | 0.095 | 2.9 | 140 | 196 | 1.4 | 176 | 245 | 2.2 |  | 
mAb1 YDQN (M252Y/T256D/T307Q) (antibody) |  |  |  | 0.115 | 0.0051 | 8.51 | 8.7e+06 | 19.8 |  |  |  |  |  |  |  |  |  |  |  |  | koff [22]: 0.028 s⁻¹; kon [22]: 250000 M⁻¹ s⁻¹; koff [23]: 0.0003 s⁻¹; kon [23]: 5000 M⁻¹ s⁻¹; Steady State RU [25]: 19.8 RU; Steady State RU [26]: 65.2 RU; Ratio (pH 6.0/pH 7.4) [27]: 2.28e-06; Kd [28]: 1.06 µM; Ratio (pH 6.0/pH 7.4) [29]: 439000
mAb1 YTWN (M252Y/T307W) (antibody) | 66.1 | 0.118 | 0.00521 | 0.118 | 0.0052 | 8.14 | 8.47e+06 | 15.9 |  |  |  |  |  |  |  |  |  |  |  | 15.9 | koff [22]: 0.057 s⁻¹; kon [22]: 480000 M⁻¹ s⁻¹; koff [23]: 0.0011 s⁻¹; kon [23]: 21000 M⁻¹ s⁻¹; koff [3]: 0.057 s⁻¹; kon [3]: 483000 M⁻¹ s⁻¹; koff [4]: 0.00109 s⁻¹; kon [4]: 208000 M⁻¹ s⁻¹; Steady State RU [25]: 15.9 RU; Steady State RU [26]: 66.1 RU; Kd [28]: 0.896 µM; Ratio (pH 6.0/pH 7.4) [29]: 533000
mAb1 YEQN (M252Y/T256E/T307Q) (antibody) |  |  |  | 0.218 | 0.0078 | 8.12 | 4.59e+06 | 15.2 |  |  |  |  |  |  |  |  |  |  |  |  | koff [22]: 0.041 s⁻¹; kon [22]: 190000 M⁻¹ s⁻¹; koff [23]: 0.0004 s⁻¹; kon [23]: 5000 M⁻¹ s⁻¹; Steady State RU [25]: 15.2 RU; Steady State RU [26]: 61.8 RU; Ratio [27]: 3.31e-06; Kd [28]: 1.62 µM; Ratio (pH 6.0/pH 7.4) [29]: 302000
mAb1 T307W (antibody) | 21.9 | 8.74 | 0.111 | 8.74 | 0.111 | 7.75 |  |  |  |  |  |  |  |  |  |  |  |  |  |  | Kd [2]: > 3 µM; Steady State RU [7]: 19.2 RU
mAb1 T307Q (antibody) | 31.3 | 5.72 | 0.058 | 5.72 | 0.058 | 7.86 |  |  |  |  |  |  |  |  |  |  |  |  |  | 6.6 | Kd [2]: > 3 µM; Steady State RU [31]: 6.4 RU; Steady State RU [7]: 24.3 RU
mAb1 N434Y (antibody; other documents disagree on this pair) |  | 0.137 |  | 0.137 |  |  |  |  |  |  |  |  |  |  |  |  |  |  |  | 25.5 | koff [22]: 0.05 s⁻¹; kon [22]: 360000 M⁻¹ s⁻¹; koff [2]: 0.05 s⁻¹; kon [2]: 360000 M⁻¹ s⁻¹; koff [3]: 0.052 s⁻¹; kon [3]: 359000 M⁻¹ s⁻¹; Steady State RU [31]: 22.6 RU
mAb1 YDQY (M252Y/T256D/T307Q/N434Y) (antibody) |  |  |  |  |  |  | 2.35e+08 | 80.2 | 0.05 | 0.67 | 0.0019 | 0.056 | 0.49 | 157 | 264 | 4.6 | 196 | 325 | 6.3 |  | Kd [30]: 0.0027 µM
YTEKF hIgG1 benchmark (M252Y/S254T/T256E/H433K/N434F) (antibody) |  |  |  |  |  |  |  |  | 0.074 | 2.4 | 0.0083 | 0.076 | 3.2 | 132 |  | 2.7 | 152 | 268 | 3.8 |  | Kd [30]: 0.015 µM
mAb1 YEQY (M252Y/T256E/T307Q/N434Y) (antibody) |  |  |  |  |  |  |  |  | 0.079 | 2.1 | 0.0037 | 0.08 | 2.5 | 136 | 213 | 2.4 | 157 | 264 | 3.4 |  | Kd [30]: 0.0048 µM
